Experimental findings from article PMC4325325 are described below.

Where only a bound is given, the exact number is not on record here.

The data set concerns RcsB. In words: EMSA. (In general: In EMSA bound probe runs differently from free probe, usually more slowly.)

lcrQ promoter had a K half of more than 2000 ng per 16 µL.
For “hmsC (hmsCDE/hmsD) promoter, wild-type RcsAAB box” the value was 800 ng per 16 µL.
